Series [1] has as its system LPESG (Abz-LPESGK(Dnp)-CONH2). Put plainly: In vitro sortase kinetics HPLC assay, LPESG substrate. The format is biochemical. Particulars: for specificity (relative cat. Efficiency, fold): ratio of kcat/Km between 4S (LPESG) and wt (LPETG) substrates; for kHydrolysis (Hz): 1 mM; for Specificity: 4S (LPESG) over wt (LPETG). As for the experimental part:
(§1) See below for details on sortase expression and purification, and on the synthesis of Abz-LPETGK(Dnp)-CONH2 (SEQ ID NO: 19). […] Reactions were initiated with the addition of enzyme and incubated at 22.5° C. for 3 to 20 minutes before quenching with 0.5 volumes of 1 M HCl. Five to ten nmol of peptide from the quenched reactions were injected onto an analytical reverse-phase Eclipse XDB-C18 HPLC column (4.6×150 mm, 5 μm, Agilent Technologies) and chromatographed using a gradient of 10 to 65% acetonitrile with 0.1% TFA in 0.1% aqueous TFA over 13 minutes. Retention times under these conditions for the Abz-LPETGK(Dnp)-CONH2 (SEQ ID NO: 19) substrate, the released GKDnp peptide, and the Abz-LPETGGG-COOH (SEQ ID NO: 20) product were 12.8, 10.4, and 9.1 min, respectively. To calculate the percent conversion, the ratio of the integrated areas of the Abz-LPETGGG-COOH (SEQ ID NO: 20) and Abz-LPETGK(Dnp)-CONH2 (SEQ ID NO: 19) peptide Abs220 peaks was compared to a standard curve generated by mixing the product and starting peptide in known ratios. To determine […] and Km, reaction rates were fit to the Michaelis-Menten equation using OriginPro 7.0 software. All kinetics values reported represent the average of at least three measurements. Percent conversion was also calculated by using the ratio of the integrated areas of the GK(Dnp)-CONH2 and Abz-LPETGK(Dnp)-CONH2 peptide Abs355 peaks were compared directly (Example 5). To determine kcat and Km, LPETG, reaction rates were fit to the Michaelis-Menten equation using Microsoft Excel using the Solver add-in. To determine Km,GGG and KH, reaction rates were fit to the modified Michaelis-Menten, for which KH is as defined when KH<<Km,GGG.
(§2) Assays to determine eSrtA, eSrtA(2A-9) and eSrtA(4S-9) specificity were performed by preparing 10 μM stocks of Abz-LXEXGK(Dnp) (SEQ ID NO: 75) peptides in 300 mM Tris pH 7.5, 150 mM NaCl, 5 mM CaCl2, 5% v/v DMSO, and 100 mM Gly-Gly-Gly-COOH (GGG). Reactions were performed by adding eSrtA(2A-9) to a final concentration of 450 nM, eSrtA(4S-9) to a final concentration of 115 nM or eSrtA to a final concentration of 47.5 nM and a final volume of 100 μL, then incubating at 22.5° C. for 15 minutes. Reactions were quenched by the addition of 0.2 volumes of 5 M HCl, then were injected onto an analytical reverse-phase Eclipse XDB-C18 HPLC column (4.6×150 mm, 5 μm, Agilent Technologies) and chromatographed using a gradient of 10 to 65% acetonitrile with 0.1% TFA in 0.1% aqueous TFA over 13 minutes. Retention times under these conditions for the Abz-LPETGK(Dnp)-CONH2 (SEQ ID NO: 19) substrate, the released GKDnp peptide, and the Abz-LPETGGG-COOH (SEQ ID NO: 20) product were 12.8, 10.4, and 9.1 min, respectively, while the remaining Abz-LXEXGK(Dnp)-CONH2 (SEQ ID NO: 74) substrates varied in retention time between 9 and 13 minutes. To calculate the percent conversion, the ratio of the integrated areas of the GK(Dnp)-CONH2 and Abz-LPETGK(Dnp)-CONH2 (SEQ ID NO: 19) peptide Abs355 peaks were compared directly. Subsequent determination of kcat/Km and KH were performed as described for in vitro SrtA characterization.
(§3) In each case, rate constants were determined by measuring enzyme velocity at eight different substrate concentrations by HPLC assay, then fit using nonlinear regression to the Michaelis-Menten equation, yielding kcat and Km. KH was calculated by measuring enzyme velocity at 1 mM target substrate and eight different GGG concentrations by HPLC assay, then fitting the resulting curves using nonlinear regression to the modified Michaelis-Menten equation.

The subject of a further series is mouse tissues. The series is described as follows: Tissue modification with GGG-Biotin (SA-568 fluorescence). The procedure: FIG. 10 is a graph showing the relative increase in fluorescence of mouse tissues specifically labeled with GGG-Biotin (detected with SA-568) using a sortase recognizing the LPESG (SEQ ID NO: 3) sortase recognition motif.
Tissue section microarrays were purchased from the BioChain institute (Cat. Z7020001, Lot B508112) and deparaffinized by treatment with 2 changes Xylene for 9 minutes each, 1 change 1:1 Xylene:Ethanol for 3 minutes, 1 change 100% ethanol for 3 minutes, 1 change 90% ethanol for 3 minutes, 1 change 70% ethanol for 3 minutes, 1 change 70% ethanol+0.25% ammonia for 1 hour, 1 change 50% ethanol for 3 minutes, 1 change DI water for 5 minutes. Antigen retrieval was achieved by soaking in 10 mM Citrate pH 6 followed by microwave heating for 2 minutes, then let to rest for 8 minutes. Tissues were washed with 10 mg/mL freshly prepared Sodium borohydride in PBS for 30 minutes on ice, then washed twice with PBS for 3 minutes each.
Slides were blocked in 5% BSA/PBS for 1 hour at room temperature, then 0.001% (w/v) avidin in 5% BSA/PBS for 15 minutes, washed with 5% BSA/PBS, 0.001% (w/v) biotin in 5% BSA/PBS for 15 minutes, washed with 5% BSA/PBS and washed twice in TBS-BC (100 mM TBS, 500 mM NaCl, 0.5% BSA, 5 mM CaCl2) for three minutes. Slides were then treated with 20 uM Enzyme and 200 uM GGG-Biotin for 1 hour at room temperature, washed with 10 mM GGG in 5% BSA/PBS for 3 minutes, then washed twice with 5% BSA/PBS for 3 minutes. Slides were then treated with 2 mg/mL Sudan Black B in 70% EtOH for 30 minutes, washed three times with 5% BSA/PBS, incubated in 5% BSA/PBS+1:250 Streptavidin-568 for 30 minutes, washed 3 times with PBS, incubated with DAPI/PBS for 30 minutes and finally washed 3 times with PBS. Slides were dried, mounted and then visualized by confocal microscopy.
Tissue staining was performed as described previously, with biotin signal false colored in red and DAPI stain false colored in blue. In each case, total integrated biotin signal was computed for both negative control and SrtA+ samples, then background subtracted and used to calculate the total fluorescence enrichment shown in FIG. 10.

Series [2] deals with LPETG (Abz-LPETGK(Dnp)-CONH2). Put plainly: In vitro sortase kinetics HPLC assay, LPETG substrate. The series is classed as biochemical. Particulars: substrate wt (LPETG). The procedure:
as §1, §2, §3

[3] abbreviates: 1 mM 4S (LPESG) substrate, GGG varied.
The mark [4] stands for this setting: 1 mM 4S (LPESG) substrate, read-out: Km, GGG.
[5] abbreviates: substrate 4S (LPESG), GGG varied.
Setting [6] is: substrate 4S (LPESG), read-out: Km, LxExG.
[7] abbreviates: Example 5 variants, substrate 4S (LPESG).
[8] abbreviates: Example 5 variants, substrate 4S (LPESG), read-out: Avg KM.
Setting [9] is: GGG varied, substrate 4S (LPESG).
Setting [10] is: Example 5 variants, read-out: Avg KM.

Like-named read-outs stand apart in the source and are kept apart here.

What is called Km is the substrate concentration at which the rate is half of its maximum.

B1: 4S.6A: 5mut + N98D A104V A118S F122A K134G I182V E189V (protein)
chain: QAKPQIPKDKSKVAGYIEIPDADIKEPVYPGPATREQLDRGVSFVEENESLDDQNISISGHTAIDRPNYQFTNLGAAKKGSMVYFKVGNETRKYKMTSIRNVKPTAVEVLDEQKGKDKQLTLVTCDDYNVETGVWETRKIFVATEVK
On to B1, for which the “Khydrolysis” value in series [1] (1 mM 4S (LPESG) substrate) turned out to be 179.3 µM. Also, the “kcat, 1 mM LxExG (Hz)” value in series [1] (setting [3]) turned out to be 1.931 Hz. Moreover, the Km came to 4950 µM in series [1] (setting [4]); 102 µM in series [1] (setting [6]); 1290 µM in series [2] (read-out: Km, LxExG). In addition, the “increase in kcat/Km for LPESG as compared to LPETG” value in series [1] (FIG. 2) is reported as roughly 5 fold. Also, the “specificity (relative cat. Efficiency, fold)” value in series [1] is 11 fold. Moreover, the kL/KL/KH in series [1] (substrate 4S (LPESG)) is recorded as 5.24E+07. In addition, in series [1] (setting [5]), the “kHydrolysis (Hz)” value came out at 0.06696 Hz. In addition, the “kcat, 10 mM GGG (Hz)” value in series [1] (substrate 4S (LPESG)) came to 0.9537 Hz; in series [2] it was 1.102 Hz. Further, the “labeling of tissue with GGG-Biotin” value with mouse tissues (bladder tissue), in the series on mouse tissues (pancreas tissue), with mouse tissues (prostate tissue), with mouse tissues (small intestine tissue), in the series with mouse tissues (spleen tissue) and in the series on mouse tissues (testis tissue) was “specific labeling” in each case. For the same molecule, the “labeling of tissue with GGG-Biotin” value in the series with mouse tissues (uterus tissue) is on record as “specific labeling”.

B2: eSrtA(4S-6): round 6 consensus variant targeting LPESG (protein)
chain: QAKPQIPKDKSKVAGYIEIPDADIKEPVYPGPATREQLDRGVSFVEENESLDDQNISISGHTAIDRPNYQFTNLGAAKKGSMVYFKVGNETRKYKMTSIRNVKPTAVEVLDEQKGKDKQLTLVTCDDYNVETGVWETRKIFVATEVK
For the molecule B2, the “Avg kcat (Hz)” value in series [1] (setting [7]) stood at 0.9425 Hz; in series [1] (setting [9]), 2.004 Hz; in series [2] (Example 5 variants) it was 0.9657 Hz. For the same molecule, the Km in series [1] (setting [8]) came out at 125 µM; in series [1] (KM for GGG, substrate 4S (LPESG), read-out: Avg KM), 13100 µM; in series [2] (setting [10]), 1040 µM. The “Avg kHydro (Hz)” value in series [1] (setting [9]) is on record as 0.01782 Hz. In series [1] (LPESG substrate), the “KH (KH,LPESG)” value was 116 ± 10 µM. Besides, the Specificity in series [1] (ratio of kcat/KM) is on record as 8.094. Further, the “Avg KH” value in series [1] (substrate 4S (LPESG)) amounted to 116.3542 µM.

B3: eSrtA(4S-4): 5mut + A104V A118T F122S I182V (protein)
chain: QAKPQIPKDKSKVAGYIEIPDADIKEPVYPGPATREQLNRGVSFVEENESLDDQNISITGHTSIDRPNYQFTNLKAAKKGSMVYFKVGNETRKYKMTSIRNVKPTAVEVLDEQKGKDKQLTLVTCDDYNEETGVWETRKIFVATEVK
As to B3, the “Avg kcat (Hz)” value was 0.7574 Hz in series [1] (setting [7]) and 0.1073 Hz in series [2] (Example 5 variants). For the same molecule, the Michaelis constant (Km) is 1560 µM in series [1] (setting [8]); 1410 µM in series [1] (setting [6]); 491 µM in series [2] (setting [10]); 339 µM in series [2] (read-out: Km, LxExG). Further, in series [1] (ratio of kcat/KM), the “preference for LPESG over LPETG” value stood at 2 fold. For the same molecule, in series [1] (ratio of kcat/KM), the Specificity came out at 2.224. The “specificity (relative cat. Efficiency, fold)” value in series [1] turned out to be 1.823 fold. Also, the figures for the “kcat, 10 mM GGG (Hz)” value in series [1] (substrate 4S (LPESG)) and in series [2] were 0.7269 Hz and 0.09571 Hz, respectively.

B4: 4S.6C: 5mut + N98D A104V A118T F122A K134R I182V E189F (protein)
chain: QAKPQIPKDKSKVAGYIEIPDADIKEPVYPGPATREQLDRGVSFVEENESLDDQNISITGHTAIDRPNYQFTNLRAAKKGSMVYFKVGNETRKYKMTSIRNVKPTAVEVLDEQKGKDKQLTLVTCDDYNFETGVWETRKIFVATEVK
In the case of B4, the “Khydrolysis” value in series [1] (1 mM 4S (LPESG) substrate) came out at 334.1 µM. Also, the “kcat, 1 mM LxExG (Hz)” value in series [1] (setting [3]) is reported as 1.502 Hz. In addition, the Km in series [1] (setting [4]) amounted to 36000 µM; in series [1] (setting [6]) it was 156 µM; in series [2] (read-out: Km, LxExG), 16.1 µM. In addition, the “specificity (relative cat. Efficiency, fold)” value in series [1] came out at 18.52 fold. For the same molecule, in series [1] (substrate 4S (LPESG)), the kL/KL/KH is recorded as 1.30E+07. For the same molecule, the “kHydrolysis (Hz)” value in series [1] (setting [5]) is listed as 0.01399 Hz. Further, the figures for the “kcat, 10 mM GGG (Hz)” value in series [1] (substrate 4S (LPESG)) and in series [2] were 0.6657 Hz and 0.003663 Hz, respectively.

The values above are taken from patent US10202593B2, “Evolved sortases and uses thereof” (President and Fellows of Harvard College, priority 2013, dated 2019).
